Patent US8840891 (RSR, dated 2014)
Read-outs that look alike come from different tables or passages of the source.

Tests used:
[1] = biological target: wild type human TSHR (human) (UniProt P16473); assay: cell-based or functional assay
[2] = biological target: TSHR with Arg255 mutated to Alanine (human) (UniProt P16473); assay: cell-based or functional assay
[3] = biological target: wild type human TSHR (human) (UniProt P16473); assay: cell-based or functional assay; remark: listed apart in the source
[4] = biological target: TSHR with Arg255 mutated to Aspartic acid (human) (UniProt P16473); assay: cell-based or functional assay
[5] = biological target: TSHR with Arg80 mutated to Aspartic acid (human) (UniProt P16473); assay: cell-based or functional assay
[6] = biological target: TSHR coated onto tubes (human) (UniProt P16473); assay: TSHR coated tubes, competitor 125I-TSH
[7] = biological target: wild type human TSHR (thyrotropin receptor) expressed on CHO cells (human) (UniProt P16473); assay: cell-based or functional assay
[8] = biological target: TSHR with Lys250 mutated to Alanine expressed on CHO cells (human) (UniProt P16473); assay: cell-based or functional assay
[9] = biological target: wild type human TSHR (thyrotropin receptor) expressed on CHO cells (human) (UniProt P16473); assay: cell-based or functional assay; remark: listed apart in the source
[10] = biological target: TSHR with Glu61 mutated to Alanine expressed on CHO cells (human) (UniProt P16473); assay: cell-based or functional assay
[11] = biological target: TSHR coated onto tubes (TSHR coated tubes) (human) (UniProt P16473); assay: TSHR coated tubes, in the presence of HBD pool (Tables 4a, 4b)
[12] = biological target: TSHR with Thr257 mutated to Alanine expressed on CHO cells (human) (UniProt P16473); assay: cell-based or functional assay
[13] = biological target: wild type human TSHR (thyrotropin receptor) expressed on CHO cells (human) (UniProt P16473); assay: cell-based or functional assay; remark: listed apart in the source
[14] = biological target: wild type human TSHR (thyrotropin receptor) expressed on CHO cells (human) (UniProt P16473); assay: cell-based or functional assay; remark: listed apart in the source
[15] = biological target: TSHR with Tyr185 mutated to Alanine expressed on CHO cells (human) (UniProt P16473); assay: cell-based or functional assay
[16] = biological target: TSHR coated onto tubes (TSHR coated tubes) (human) (UniProt P16473); assay: Scatchard analysis, 125I-5C9 IgG and unlabelled 5C9 IgG in TSHR coated tubes

5C9 IgG (antibody)
cyclic AMP; 5C9 0.01 µg/mL + TSH (fmol/cell well) [1]: 6620
cyclic AMP; 5C9 0.1 µg/mL + TSH (fmol/cell well) [1]: 3790
cyclic AMP; 5C9 1.0 µg/mL + TSH (fmol/cell well) [1]: 966
cyclic AMP; 5C9 10 µg/mL + TSH (fmol/cell well) [1]: 867
cyclic AMP; 5C9 100 µg/mL + TSH (fmol/cell well) [1]: 1010
cyclic AMP; 5C9 100 µg/mL only (fmol/cell well) [1]: 32
Mutated/wild type (%); 5C9 0.01 µg/mL + TSH [2]: 123%
Mutated/wild type (%); 5C9 0.1 µg/mL + TSH [2]: 109%
Mutated/wild type (%); 5C9 1.0 µg/mL + TSH [2]: 201%
Mutated/wild type (%); 5C9 10 µg/mL + TSH [2]: 80%
Mutated/wild type (%); 5C9 100 µg/mL + TSH [2]: 80%
Mutated/wild type (%); 5C9 100 µg/mL only [2]: 775%
cyclic AMP; 5C9 0.01 µg/mL + TSH (fmol/cell well) [2]: 8120
cyclic AMP; 5C9 0.1 µg/mL + TSH (fmol/cell well) [2]: 4140
cyclic AMP; 5C9 1.0 µg/mL + TSH (fmol/cell well) [2]: 1940
cyclic AMP; 5C9 10 µg/mL + TSH (fmol/cell well) [2]: 692
cyclic AMP; 5C9 100 µg/mL + TSH (fmol/cell well) [2]: 809
cyclic AMP; 5C9 100 µg/mL only (fmol/cell well) [2]: 248
cyclic AMP; 5C9 0.01 µg/mL + TSH (fmol/cell well) [3]: 17500
cyclic AMP; 5C9 0.1 µg/mL + TSH (fmol/cell well) [3]: 6600
cyclic AMP; 5C9 1.0 µg/mL + TSH (fmol/cell well) [3]: 3380
cyclic AMP; 5C9 10 µg/mL + TSH (fmol/cell well) [3]: 1240
cyclic AMP; 5C9 100 µg/mL + TSH (fmol/cell well) [3]: 1510
cyclic AMP; 5C9 100 µg/mL only (fmol/cell well) [3]: 278
Mutated/wild type (%); 5C9 0.01 µg/mL + TSH [4]: 89%
Mutated/wild type (%); 5C9 0.1 µg/mL + TSH [4]: 85%
Mutated/wild type (%); 5C9 1.0 µg/mL + TSH [4]: 57%
Mutated/wild type (%); 5C9 10 µg/mL + TSH [4]: 59%
Mutated/wild type (%); 5C9 100 µg/mL + TSH [4]: 94%
Mutated/wild type (%); 5C9 100 µg/mL only [4]: 201%
cyclic AMP; 5C9 0.01 µg/mL + TSH (fmol/cell well) [4]: 15700
cyclic AMP; 5C9 0.1 µg/mL + TSH (fmol/cell well) [4]: 5580
cyclic AMP; 5C9 1.0 µg/mL + TSH (fmol/cell well) [4]: 1930
cyclic AMP; 5C9 10 µg/mL + TSH (fmol/cell well) [4]: 735
cyclic AMP; 5C9 100 µg/mL + TSH (fmol/cell well) [4]: 1410
cyclic AMP; 5C9 100 µg/mL only (fmol/cell well) [4]: 559
Mutated/wild type (%); 5C9 0.01 µg/mL + TSH [5]: 161%
Mutated/wild type (%); 5C9 0.1 µg/mL + TSH [5]: 70%
Mutated/wild type (%); 5C9 1.0 µg/mL + TSH [5]: 73%
Mutated/wild type (%); 5C9 10 µg/mL + TSH [5]: 66%
Mutated/wild type (%); 5C9 100 µg/mL + TSH [5]: 79%
Mutated/wild type (%); 5C9 100 µg/mL only [5]: 174%
cyclic AMP; 5C9 0.01 µg/mL + TSH (fmol/cell well) [5]: 21000
cyclic AMP; 5C9 0.1 µg/mL + TSH (fmol/cell well) [5]: 4420
cyclic AMP; 5C9 1.0 µg/mL + TSH (fmol/cell well) [5]: 1910
cyclic AMP; 5C9 10 µg/mL + TSH (fmol/cell well) [5]: 1250
cyclic AMP; 5C9 100 µg/mL + TSH (fmol/cell well) [5]: 1270
cyclic AMP; 5C9 100 µg/mL only (fmol/cell well) [5]: 523
% inhib of 125I-TSH binding at 0.01 µg/mL [6]: 2%
% inhib of 125I-TSH binding at 0.1 µg/mL [6]: 8%
% inhib of 125I-TSH binding at 1 µg/mL [6]: 21%
% inhib of 125I-TSH binding at 10 µg/mL [6]: 30%
% inhib of 125I-TSH binding at 100 µg/mL [6]: 50%

B1: 5C9 IgG (human monoclonal autoantibody to the TSHR) (antibody, from another filing, V domains shown)
VH: EVQLVESGGGLIQPGGSLRLSCAASGFTVSSNYMSWVRQAPGKGLEWVSVTYSGGSTSYADSVKGRFTISRDNSKNTLYLQMNSLRAEDTAVYYCARGGRYCSSISCYARSGCDYWGQGTLVTVSS
VL: AIQMTQSPSSLSASVGDRVTITCRASQSISNYLNWYQQKPGKAPKLLIYAASSLQSGVPSRFSGSGSGTDFTLTISSLQPEDFATYYCQQSYSSPSTTFGQGTKLEIK
Cyclic AMP produced; 5C9 0.01 µg/mL + TSH (fmol/cell well) [7]: 15200
Cyclic AMP produced; 5C9 0.1 µg/mL + TSH (fmol/cell well) [7]: 6300
Cyclic AMP produced; 5C9 1.0 µg/mL + TSH (fmol/cell well) [7]: 643
Cyclic AMP produced; 5C9 10 µg/mL + TSH (fmol/cell well) [7]: 286
Cyclic AMP produced; 5C9 100 µg/mL + TSH (fmol/cell well) [7]: 158
Cyclic AMP produced; 5C9 100 µg/mL only (fmol/cell well) [7]: 458
Cyclic AMP produced; 5C9 0.01 µg/mL + TSH (fmol/cell well) [8]: 14500
Cyclic AMP produced; 5C9 0.1 µg/mL + TSH (fmol/cell well) [8]: 8490
Cyclic AMP produced; 5C9 1.0 µg/mL + TSH (fmol/cell well) [8]: 2570
Cyclic AMP produced; 5C9 10 µg/mL + TSH (fmol/cell well) [8]: 862
Cyclic AMP produced; 5C9 100 µg/mL + TSH (fmol/cell well) [8]: 96
Cyclic AMP produced; 5C9 100 µg/mL only (fmol/cell well) [8]: 448
Mutated/wild type (%); 5C9 0.01 µg/mL + TSH [8]: 95%
Mutated/wild type (%); 5C9 0.1 µg/mL + TSH [8]: 135%
Mutated/wild type (%); 5C9 1.0 µg/mL + TSH [8]: 399%
Mutated/wild type (%); 5C9 10 µg/mL + TSH [8]: 301%
Mutated/wild type (%); 5C9 100 µg/mL + TSH [8]: 61%
Mutated/wild type (%); 5C9 100 µg/mL only [8]: 98%
Cyclic AMP produced; 5C9 0.01 µg/mL + TSH (fmol/cell well) [9]: 13800
Cyclic AMP produced; 5C9 0.1 µg/mL + TSH (fmol/cell well) [9]: 2890
Cyclic AMP produced; 5C9 1.0 µg/mL + TSH (fmol/cell well) [9]: 536
Cyclic AMP produced; 5C9 10 µg/mL + TSH (fmol/cell well) [9]: 254
Cyclic AMP produced; 5C9 100 µg/mL + TSH (fmol/cell well) [9]: 202
Cyclic AMP produced; 5C9 100 µg/mL only (fmol/cell well) [9]: 218
Cyclic AMP produced; 5C9 0.01 µg/mL + TSH (fmol/cell well) [10]: 18000
Cyclic AMP produced; 5C9 0.1 µg/mL + TSH (fmol/cell well) [10]: 2110
Cyclic AMP produced; 5C9 1.0 µg/mL + TSH (fmol/cell well) [10]: 766
Cyclic AMP produced; 5C9 10 µg/mL + TSH (fmol/cell well) [10]: 346
Cyclic AMP produced; 5C9 100 µg/mL + TSH (fmol/cell well) [10]: 328
Cyclic AMP produced; 5C9 100 µg/mL only (fmol/cell well) [10]: 254
Mutated/wild type (%); 5C9 0.01 µg/mL + TSH [10]: 131%
Mutated/wild type (%); 5C9 0.1 µg/mL + TSH [10]: 73%
Mutated/wild type (%); 5C9 1.0 µg/mL + TSH [10]: 143%
Mutated/wild type (%); 5C9 10 µg/mL + TSH [10]: 136%
Mutated/wild type (%); 5C9 100 µg/mL + TSH [10]: 162%
Mutated/wild type (%); 5C9 100 µg/mL only [10]: 117%
% of labelled protein bound [11]: 17%
Cyclic AMP produced; 5C9 0.01 µg/mL + TSH (fmol/cell well) [12]: 21100
Cyclic AMP produced; 5C9 0.1 µg/mL + TSH (fmol/cell well) [12]: 7940
Cyclic AMP produced; 5C9 1.0 µg/mL + TSH (fmol/cell well) [12]: 1590
Cyclic AMP produced; 5C9 10 µg/mL + TSH (fmol/cell well) [12]: 972
Cyclic AMP produced; 5C9 100 µg/mL + TSH (fmol/cell well) [12]: 611
Cyclic AMP produced; 5C9 100 µg/mL only (fmol/cell well) [12]: 637
Mutated/wild type (%); 5C9 0.01 µg/mL + TSH [12]: 113%
Mutated/wild type (%); 5C9 0.1 µg/mL + TSH [12]: 129%
Mutated/wild type (%); 5C9 1.0 µg/mL + TSH [12]: 114%
Mutated/wild type (%); 5C9 10 µg/mL + TSH [12]: 152%
Mutated/wild type (%); 5C9 100 µg/mL + TSH [12]: 103%
Mutated/wild type (%); 5C9 100 µg/mL only [12]: 111%
Cyclic AMP produced; 5C9 0.01 µg/mL + TSH (fmol/cell well) [13]: 18700
Cyclic AMP produced; 5C9 0.1 µg/mL + TSH (fmol/cell well) [13]: 6140
Cyclic AMP produced; 5C9 1.0 µg/mL + TSH (fmol/cell well) [13]: 1400
Cyclic AMP produced; 5C9 10 µg/mL + TSH (fmol/cell well) [13]: 638
Cyclic AMP produced; 5C9 100 µg/mL + TSH (fmol/cell well) [13]: 591
Cyclic AMP produced; 5C9 100 µg/mL only (fmol/cell well) [13]: 566
Cyclic AMP produced; 5C9 0.01 µg/mL + TSH (fmol/cell well) [14]: 17300
Cyclic AMP produced; 5C9 0.1 µg/mL + TSH (fmol/cell well) [14]: 6220
Cyclic AMP produced; 5C9 1.0 µg/mL + TSH (fmol/cell well) [14]: 1660
Cyclic AMP produced; 5C9 10 µg/mL + TSH (fmol/cell well) [14]: 481
Cyclic AMP produced; 5C9 100 µg/mL + TSH (fmol/cell well) [14]: 275
Cyclic AMP produced; 5C9 100 µg/mL only (fmol/cell well) [14]: 123
Cyclic AMP produced; 5C9 0.01 µg/mL + TSH (fmol/cell well) [15]: 9370
Cyclic AMP produced; 5C9 0.1 µg/mL + TSH (fmol/cell well) [15]: 4540
Cyclic AMP produced; 5C9 1.0 µg/mL + TSH (fmol/cell well) [15]: 1200
Cyclic AMP produced; 5C9 10 µg/mL + TSH (fmol/cell well) [15]: 301
Cyclic AMP produced; 5C9 100 µg/mL only (fmol/cell well) [15]: 163
Mutated/wild type (%); 5C9 0.01 µg/mL + TSH [15]: 54%
Mutated/wild type (%); 5C9 0.1 µg/mL + TSH [15]: 73%
Mutated/wild type (%); 5C9 1.0 µg/mL + TSH [15]: 72%
Mutated/wild type (%); 5C9 10 µg/mL + TSH [15]: 63%
Mutated/wild type (%); 5C9 100 µg/mL only [15]: 133%
Ka [16]: 4e+10 M⁻¹
